Data reported in a protein production outcome set (Wang et al. 2014).

Assay: label from the status in PepcDB records

| Sequence | protein production |
| --- | --- |
| MKNEGKKGTEQAKKPEKTKITENEINGNESGKQSFEVDRRSVYRCVQCGTCRSVCPVFDVVGWESANTRGRMLIIKSLLEGRPPSEDMLPSLASCTTCGICAVKCPAGVKPPKVVEAARAQLVKCGITTEAQKNLKSTIMTYGNSFGETRDRKHWLSEVERSQLPEKSDYVYFVGCFDSYRYPEFAKKTFGILQQFGVTLLPDEQCCASPLLRTGFKEDAEKVMKHNLEQIRKVGAHTIITSCAGCYTTLKNNYPEELKVISLPEFLVEHLEELNLKKLDLTVTYHDPCHLGRHNKVYDAPRKVIQAICTLKEMKYIKENARCCGGGGGVRTGYPDISLELARNRLKDVPEGVDYIVTSCPLCVRNLRDAGGDIEVIDIVELVAMAME | failed |
| MEKSLLVIVRHKPGRTRLLIRALQSINDQTFKKINIIIFCMEEELKCHNVDDFYLKELSNIYSVIYDENCIFNAIKMSESNYLCFMDDDDSWAPEYVSRLLSVLANIQSTYSSVNAIACHTNKVAEIAENNRIIINSTQPWNHYLNAGPVSFDVIYYRNSIPLSSCLFDRNSVIDVIESHKLSSPAFFWPFFIHYLAENDVWILPEALAFYHFRENDDFEFGNYTVINNELFDIECKIAENKMMRSIDDSSLLNVLLSNIANNSLFHKISYIENKIK | failed |
| MAKKTSSLLSRRRTRRPGEPPLDLGSIPWLGYALDFGKDAASFLTRMKEKHGDIFTILVGGRYVTVLLDPHSYDAVVWEPRTRLDFHAYAIFLMERIFDVQLPHYSPSDEKARMKLTLLHRELQALTEAMYTNLHAVLLGDATEAGSGWHEMGLLDFSYSFLLRAGYLTLYGIEALPRTHESQAQDRVHSADVFHTFRQLDRLLPKLARGSLSVGDKDHMCSVKSRLWKLLSPARLARRAHRSKWLESYLLHLEEMGVSEEMQARALVLQLWATQGNMGPAAFWLLLFLLKNPEALAAVRGELESILWQAEQPVSQTTTLPQKVLDSTPVLDSVLSESLRLTAAPFITREVVVDLAMPMADGREFNLRRGDRLLLFPFLSPQRDPEIYTDPEVFKYNRFLNPDGSEKKDFYKDGKRLKNYNMPWGAGHNHCLGRSYAVNSIKQFVFLVLVHLDLELINADVEIPEFDLSRYGFGLMQPEHDVPVRYRIRPHHHH | not failed |
| MRKDETSNTSPDISVAQPASALRYHLRPPRRNDGAAIHQLVSECPPLDLNSLYAYLLLCEHHAHTCVVAESPGGRIDGFVSAYLLPTRPDVLFVWQVAVHSRARGHRLGRAMLGHILERQECRHVRHLETTVGPDNQASRRTFAGLAGERGAHVSEQPFFDRQAFGGADHDDEMLLRIGPFTHPPH | not failed |
| MVNIFWFSLAVIIYSYFIYPFILLIFSAVKQAISDTRYLWKKSQRRVVDKDNLPPVSIIIAAYNEESCIKARVENLLSLDYPQDKLTILIGSDGSQDKTAEILTSFDAVNLKVHIFEKNRGKMSVLNDLVEQVNSDYIVFSDANTHFNKNTIEYLVRHFNHDNIGAVCGELHLVDVDSGDNKDNIYWRYEQVLKFHEARLNALQGANGAIYAIRKELFIPLPANTIVDDFQIAMNVAKQGFRLIYDPEAIAIEEIAPNLQAEEGRRVRIGLGNYQALFTMAWALNPLLGWRFIAYISHKVCRWFVPHLMLITLISNLLLISNPLYQLLFIGQILFYSVAFYGIKKQQKRQKVSSIIGIIAFFVSMNIALMRGFIRYFSSNVQGTWERTTR | failed |
| MASYHARQRDPLLDQNMQAMLERRGRELLGIGLLIVAFLFMLILGTYSPEDPGWMVATDEPAQNALGRIGAAISSTLMIIAGKGSWGLPIVAGAWGARFLLHRGEERALGRIVFAVIAIALGSIYAATHVPGSEWTHSFGLGGLFGDTVLGALLEILPLPAAYGLKLLSLLVGGGLVAMGLFVCGFDLRELRQVTQFLLVGLVVTYNAALQLAGRGSVQAAQLMQEKIRAHREGRAAVDAAAVRGEARAEAMPRPRSRFREPEPEPEPAPRMGFLSRLRAQAPEDDPEPVIEEAAWGRPATLRADTTRPAALRSEGLRAEPRHVEPAPAPAQPRTGLLARMPQIIRRVTDPEAELVEHALSDAAANAEGPTEDRIKARINDVIRSRVRQSTGPLSPIAAAIARREPPMARRRSGPAPMVATRRAPMELPPEPPVVAGAGEKIRFASGMVASRMPGAATARLAVSALEADAAPAHAPRLMAEAYDAYEACETGEPILTAREQLAYADEDEAAAYDEAYAAEEEVESYAAEEAAWLPHEDFDDSTDWAPEPAAPAAPMMAPAMAPKPAAAPAARAPAVRPPEAQPKPRFEEQETHYELPPLSLLACPSTIVRNTLSVDALKENARMLESVLEDYGVKGEIVDAQAGPVVTLYELEPAPGLKASRVIGLADDIARSMSALSARVSTVPGRTVIGIELPNVSREKVILREILAARDFGDSSMRLPLALGKDIAGRPVVANLAKMPHLLIAGTTGSGKSVAINTMILSLLYKLTPEECRLIMIDPKMLELSVYDGIPHLLSPVVTDPKKAVVALKWVVGEMEERYRKMSKLGVRNIEGYNGRVSEALEKGEMFKRTIQTGFDEDTGEPVFETEDLQPVRLPFIVVVVDEMADLMMVAGKEIEACIQRLAQMARASGIHLIMATQRPSVDVITGTIKANFPTRISFQVTSKIDSRTILGEQGAEQLLGMGDMLYMAGGAKITRIHGPFVSDEEVEEIVNHLKSFGPPKYMSGVVEGPEDDRADDIDAVLGLGGNTDSEDALYDQAVAIVAKDRKCSTSYIQRKLGIGYNKAARLVEQMEEQGVVTAANHVGKREILLPEQ | failed |
| MKRKLIYLFIALAATILPAHAQKFLNDALTLSNVSLWQQGNSLYVGMTVDMANLTIGSARSLSLIPLLTDGQHNVPLQEIIVNGKRREKAYLRGLAISKQESTAIIVPYNKRETFNYTQVIPYQPWMANASLQLVENLCGCGNYQEMNAQELITNDVSTEAKRLSAMSPIVAYIQPTVEVVKNRSEQYEAHLDFPVNKSVILTDFMNNHSELVNIHSMFDKIQNDKNLTVQSISIEGFASPEGPLAFNEQLSKKRAEALKDYLVKNEKASAKLYKVTFGGENWDGLVKALESSSMKDKETFLNIIKNTTNDVKRKQEIMKVGGGAPYRTMLKEIYPGLRKVNCKIDYTVVNFDVEQGRIIIRENPKYLSLNEMYQVANSYPKGSKDFVDVFDIAVRMYPTDAVANLNAAAVALSQKDINTALKYMEKADHTTAEFLNNTGVYNFLNGDIQRATAAFEQAAKLGNEAAQANLKQLQQIMNMKMSK | failed |
| EMEEREIINNVFEFGDMQAKNAMVQRIDMVAIDMEDSYDEIIQVFKTEKLSRMPVYEETIDDIVGILNIKDIIFLSDEEIESFDIKNYMREPFFTYEFKKITQLLEEMKLEKSQMAIVVDEYGGTSGLLTIEDLVEVIVGDIE | not failed |
| MKGKVVSYLAAKKYGFIQGDDGESYFLHFSELLDKKDEGKLVKGSMVHFDPTPTPKGLAAKAISLPEVFIRERLVDFFTTRDNRPKNGTVIASFPIATRFFKDPSEGRRHLEQLAKHCGCNAVLNVSFEKDTFSKGNYRYTVHAFKGELALVTEKVPADAQELVVASAELLEKRKADVEQAVKQMSEAENLARQKQLSGCLGTLAIITLIPLALVLTAIAVFPA | failed |
| STMTVIKDYYALKENEICVSQSEVVQVLAVNQQNMCLVYQPASDHSPAAKGWVPGSILAPF | not failed |
| MLERIANIQKKLSKSIVERKINEVRKVAAVDVSYKEEKARAALVITTFPEGEVLKTKVIETTVSFPYIPTFFFLRETKPILIATKGETFDVLIVEGHGKAHPRGYGLASHIGVVLRKPTIGVAKRLLKNTPKDTYKKVGKVYVSVGNLITLEDATKIIRAILDESGYPKPLKLADKLSKGRIYEVKNTPSPNRSRKKRGNRGKDNNNSQGNLEHHHHHH | failed |
| MPTETFFNLPEEKRSRLIDVLLDEFAQNDYDSVSINRITERAGIAKGSFYQYFADKKDCYLYLIQLGIEQKTAFLRQTPPASTTDMFAYLRWLLDVGIQFQFHNPRLAQIAYKALYDDVPLPAETMQVIRHGSFAYFKQLVEQGIADGSLVPDLDADTAAFVLNVVFTELGNHLIERFAVNPAELLREGGIVLLQPAMRRVIEQVIDILERGMRRR | not failed |
| MSLYTFKELKRATKQDTVSLPKLKVALLGDTATQLLATAIKGEGILRNYNIELWEAEYNQVERQIMDPTSDYYQFEPDYTIIFHSTHKLLEKHSLVNSDLQNKLADDRLDFVRLLCEQGIGRVIYYNYPEIEDTIWGSYATKVQSSFTYQLTKLNYELMNISQAYPNFFICNLAGISAKYGRNFMFDSSVYVNTEIILSLDALPIISSRTIDIIAAIQGKFKKCLILDLDNTIWGGVVGDDGWENIQVGHGLGIGKAFTEFQEWVKKLKNRGIIIAVCSKNNEGKAKEPFERNPEMVLKLDDIAVFVANWENKADNIRTIQRTLNIGFDSMVFLDDNPFERNMVREHVPGVTVPELPEDPGDYLEYLYTLNLFETASFSEGHHHHHH | not failed |
| MEYYFTAQKLAVGYDNRPLIENIDFSLKRGEILTLIGPNGAGKSTILKSIARQLSLVSGTIYLDKSDVVTMNGNEFAKKMAVVLTDKLKTELMTCYDVVATGRYPYTGRFGVLSDEDKKAVDEAMELVNVSQIKDKDFTKISDGQRQRVMLSRAICQQPEIIVLDEPTSYLDIKYKLEFLSILQRLKRQKNLTVIMSLHELDMAKRVSDHILCIDGRYVDRYGTPEEVFTDQYVSGLFGITAGSLEHHHHHH | not failed |
| MELPVVVQQALGDNAPGVSFRSVSQIDTGHLLRMVLLSDDQGNLQAICRRNDMLDLEALNKRLGRDLRMMQRREQVRVRQKAGLQELPALPSLTGWPTVVDRRVDELEAVALELGEQDLGLMMPAEDFRQLTAKAARHDFAVDTANISVNLDNHAADRDQLHSAIKRFTGLRIQQRLEDTLELPPLPETAQRIIHLRVNPNAVMGDLVDVVESDPSLAAQVVSWASSSFYAAAGRVHSVHDAVSRVLGFDLVMNLAMGLALGRALKHPQDHPDGYVDYWQQAIWQAQSAGILASMMPRGQRPLFGLAYLAGLLHNFGHLVLAQVFPPHFKLVCRSLEVSPHIDSSVIEHYLLGITREQIAAQLMENWGMPDEVTLAIRYQKNPAYDGPHNVYARLLWLGRQLLTERGVALGAGESATQAVYDELGLDRELVQEQFDELVRRKDSIMAMAGMMSQGG | not failed |
| MGITITDELLWAILKDELSDAEANALVWQALGYVWDEAQSCWKTDLVAPEWRQDYPEPPDFIASRPATVKLTRSIPAPYKQLLKEELGFAGYSINELVPRKTRRATMTNWLLAYRRSQQD | not failed |
| MKTRMKITIAFVAVMVLSFTGYNVYKTQKAIQLSDVAMANVEALADGEGTNAGYCYLEDTWSTKRGYKYFCDSKTDKNTIYPCPSSMESGWYDDNKQDRCTK | failed |
| MPLHNLTRFPRLEFIGAPTPLEYLPRFSDYLGREIFIKRDDVTPMAMGGNKLRKLEFLAADALREGADTLITAGAIQSNHVRQTAAVAAKLGLHCVALLENPIGTTAENYLTNGNRLLLDLFNTQIEMCDALTDPNAQLEELATRVEAQGFRPYVIPVGGSNALGALGYVESALEIAQQCEGAVNISSVVVASGSAGTHAGLAVGLEHLMPESELIGVTVSRSVADQLPKVVNLQQAIAKELELTASAEILLWDDYFAPGYGVPNDEGMEAVKLLARLEGILLDPVYTGKAMAGLIDGISQKRFKDEGPILFIHTGGAPALFAYHPHV | failed |
| MSQDKQMKAVSPLLQRVINISSIVGGVGSLIFCIWAYQAGILQSKETLSAFIQQAGIWGPPLFIFLQILQTVVPIIPGALTSVAGVFIYGHIIGTIYNYIGIVIGCAIIFYLVRLYGAAFVQSVVSKRTYDKYIDWLDKGNRFDRFFIFMMIWPISPADFLCMLAALTKMSFKRYMTIIILTKPFTLVVYTYGLTYIIDFFWQML | failed |
| MFNIADGGFTELHTLWLNEEKAAVPGREYEIWHRRHDYWLLAGIVTHGYGRWQDIQNDIRFAIINEPFKMDVGKGNFLEIKNKFLARRFKLLEQALVIEEQLRRAAYLNLAQDPSHPAMSLNARFAEVECLAESHQHLSKESLAGNKPANAVLHKVLNQLEELLSDMKSDVSRLPATLARIPPVAQRLQMSERSILSRLA | failed |
